The values that follow come from patent publication US20130251714A1 (Sanofi, published 2013).

Assay [1] deals with T1, cynomolgus CXCR5 (on cynomolgus B cells) (cynomolgus monkey, UniProt G8F5K4 1-372).
T1 construct: also called cyno CXCR5
T1 sequence: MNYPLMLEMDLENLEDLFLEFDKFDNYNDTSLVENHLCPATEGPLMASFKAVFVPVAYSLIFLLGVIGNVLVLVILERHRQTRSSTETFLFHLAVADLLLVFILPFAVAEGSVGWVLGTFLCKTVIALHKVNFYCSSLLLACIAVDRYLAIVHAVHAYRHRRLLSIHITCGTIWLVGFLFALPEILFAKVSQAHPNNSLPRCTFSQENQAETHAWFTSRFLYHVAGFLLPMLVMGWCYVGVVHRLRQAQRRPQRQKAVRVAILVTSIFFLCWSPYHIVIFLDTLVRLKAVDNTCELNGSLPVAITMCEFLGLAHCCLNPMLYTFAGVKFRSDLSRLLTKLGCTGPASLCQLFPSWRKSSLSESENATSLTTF
Briefly: FACS on cynomolgus PBMCs (CD20+ B cells). As for the experimental part: Cynomolgus (cyno) monkey whole blood was obtained from Bioreclamation, Inc. (Hicksville, N.Y.). The blood was shipped in BD Cell Preparation Tubes (CPT) post-centrifugation. The cyno PBMCs contained in the plasma layer were removed from the CPT tube into a 50 ml tube leaving the gradient gel layer undisturbed. The tube was washed with 5 ml PBS to completely extract all the cells and the wash was added to a fresh 50 ml tube. The cyno PBMCs were centrifuged at 1200 RPM for 10 minutes at 4° C. The pellet was resuspended in 1 ml BD FACS Stain buffer (BD). One million cells were used per assay. One μg of mouse anti-human CXCR5 monoclonal antibody (purified) was added to 50 μl PBMC and allowed to bind for 20 minutes at 4° C. Cells were washed 2 times with BD Stain buffer. Fifty μl of second antibody, goat anti-mouse IgG-PE F_{(ab′)} (Beckman Coulter) diluted 1/100, was added to the cells and allowed to bind for 20 minutes at 4° C. Cells were washed three times with BD Stain buffer. A cocktail containing mouse anti-human CD20-FITC (BD) and CD4-APC (BD) at 1/20 dilution each was added to cells for a 20 minute incubation at 4° C. for assessment of B/T cell specificity. Cells were washed 3 times with BD Stain buffer, and resuspended in 250 μl BD Stain buffer and subjected to FACS analysis on a FACStarPlus. Commercial mouse anti-human CXCR5 mAb (R&D; MAB 190) was used as a positive control.

In assay [2] the target is T2, N-terminal EC region of human CXCR5 (amino acids 1-59), synthetic peptide with a terminal biotin tag (human, UniProt P32302 1-59, terminal biotin tag).
T2 construct: range 1-59; also called biotinylated human peptide
T2 sequence (peptide, looked up): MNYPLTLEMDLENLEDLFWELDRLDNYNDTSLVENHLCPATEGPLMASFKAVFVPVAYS
Briefly: Biacore, forward format: biotin-tagged CXCR5 N-terminal peptide (aa 1-59) on the chip, antibody as analyte. The method, then: The N-terminal EC region of CXCR5 (amino acids 1-59) from human and mouse were synthesized with a terminal biotin tag, and used in a forward format Biacore assay where the peptides were immobilized on a Biacore chip and then the kinetics of antibody interaction with the peptides on the chip were determined. The synthetic peptides were immobilized on a Biacore chip for approximately 20 response units (RUs'). Then the mAb's were exposed to the chip for kinetic measurements, following the manufacturer's recommendations (GE Healthcare, Piscataway, N.J.).
A general note: In SPR one partner is held on a chip, and binding of the other changes the refractive index at the surface.

In assay [3] the target is T3, un-tagged human CXCR5 N-terminal peptide (amino acids 1-59) (human, UniProt P32302 1-59).
T3 construct: range 1-59
T3 sequence (peptide, looked up): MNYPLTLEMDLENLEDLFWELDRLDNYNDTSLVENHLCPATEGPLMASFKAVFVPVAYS
Briefly: Biacore, reverse format: mAb captured by pre-immobilized mouse anti-human IgG Fc antibody, un-tagged peptide as analyte. The method, then: Humanized SAR113244, a form of the 16D7 humanized variant, 16D7-HC1-LC3 that carries the S241P and L248E substitutions (substitutions introduced practicing known methods and reagents, using Kabat numbering), was captured on a Biacore chip by pre-immobilized mouse anti-human IgG Fc antibody, and then used in a reverse assay format Biacore assay where the kinetics of the un-tagged human CXCR5 N-terminal peptide (amino acids 1-59) interaction with the mAb's on the chip were determined.

B1: Mouse anti-hCXCR5 mAb clone 16D7 (antibody, V domains shown)
VH: QVQLKESGPGLVAPSQSLSITCTVSGFSLIDYGVNWIRQPPGKGLEWLGVIWGDGTTYYNSALKSRLSIRKDNSQSQVFLKMNSLQTDDTAMYYCARIVYWGQGTLVTVSA
VL: DIVMTQAAPSVAVTPRESVSISCRSSKSLLHSSGKTYLYWFLQRPGQSPQLLIYRMSNLASGVPDRFSGSGSGTAFTLRISRVEAEDVGVYYCMQHLEYPYTFGGGTKLEIK
notes: Mouse monoclonal antibody from a hybridoma; kappa light chain; also called murine 16D7; parent 16D7 antibody
With B1, in assay [1], the binding result was “no binding (tested: One µg of antibody added to 50 µl PBMC)”. Besides, the Kd (commonly the constant that tells how readily two partners part at equilibrium) in assay [2] was found to be 2.16 pM.

B2: 16D7-HC1-LC1 (antibody, V domains shown)
VH: QVQLKESGPGLVAPSESLSITCTVSGFSLIDYGVNWIRQPPGKGLEWLGVIWGDGTTYYNPSLKSRLSISKDNSKSQVFLKVTSLTTDDTAMYYCARIVYWGQGTLVTVSA
VL: DIVMTQAAPSVAVTPGASVSISCRSSKSLLHSSGKTYLYWFLQRPGQSPQLLIYRMSNLASGVPDRFSGSGSGTAFTLRISRVEAEDVGVYYCMQHLEYPYTFGGGTKLEIKR
notes: Humanized 16D7 on an IgG4 backbone / kappa; also called Version1
In the case of B2, the binding result in assay [1] is recorded as “no binding”. The same molecule displayed a Kd in assay [2] of 3.11 pM.

B3: 16D7-HC1-LC2 (antibody, V domains shown)
VH: QVQLKESGPGLVAPSESLSITCTVSGFSLIDYGVNWIRQPPGKGLEWLGVIWGDGTTYYNPSLKSRLSISKDNSKSQVFLKVTSLTTDDTAMYYCARIVYWGQGTLVTVSA
VL: DIVMTQAAPSVAVTPGASVSISCRSSKSLLHSSGKTYLYWFLQRPGQSPQLLIYRLSNLASGVPDRFSGSGSGTAFTLRISRVEAEDVGVYYCMQHLEYPYTFGGGTKLEIKR
notes: Humanized 16D7 on an IgG4 backbone / kappa; also called Version3
Turning to B3, the binding result in assay [1] is on record as “no binding”. Also, in assay [2], the affinity, expressed as Kd, was 1.41 pM.

B4: Humanized SAR113244 (16D7-HC1-LC3 carrying the S241P and L248E substitutions) (antibody)
heavy: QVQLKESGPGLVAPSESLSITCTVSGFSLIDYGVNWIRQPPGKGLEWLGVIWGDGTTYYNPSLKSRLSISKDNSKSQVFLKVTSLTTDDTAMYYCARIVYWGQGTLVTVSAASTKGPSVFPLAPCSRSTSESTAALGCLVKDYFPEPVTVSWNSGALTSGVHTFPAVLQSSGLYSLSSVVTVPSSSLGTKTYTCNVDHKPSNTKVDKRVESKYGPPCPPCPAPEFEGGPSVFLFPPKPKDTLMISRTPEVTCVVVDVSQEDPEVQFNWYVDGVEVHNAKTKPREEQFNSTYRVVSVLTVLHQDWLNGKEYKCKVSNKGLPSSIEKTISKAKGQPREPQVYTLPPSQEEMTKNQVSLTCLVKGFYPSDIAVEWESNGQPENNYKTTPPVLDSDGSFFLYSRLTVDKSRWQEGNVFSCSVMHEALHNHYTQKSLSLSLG
light: DIVMTQAAPSVAVTPGASVSISCRSSKSLLHSSGKTYLYWFLQRPGQSPQLLIYRLSSLASGVPDRFSGSGSGTAFTLRISRVEAEDVGVYYCMQHLEYPYTFGGGTKLEIKRTVAAPSVFIFPPSDEQLKSGTASVVCLLNNFYPREAKVQWKVDNALQSGNSQESVTEQDSKDSTYSLSSTLTLSKADYEKHKVYACEVTHQGLSSPVTKSFNRGEC
notes: Leader (residues 1-19) left out as for 16D7-HC1-LC3
As for B4, in assay [3], the affinity, expressed as Kd, was 11.3 pM.

B5: 16D7-HC1-LC3 (antibody)
heavy: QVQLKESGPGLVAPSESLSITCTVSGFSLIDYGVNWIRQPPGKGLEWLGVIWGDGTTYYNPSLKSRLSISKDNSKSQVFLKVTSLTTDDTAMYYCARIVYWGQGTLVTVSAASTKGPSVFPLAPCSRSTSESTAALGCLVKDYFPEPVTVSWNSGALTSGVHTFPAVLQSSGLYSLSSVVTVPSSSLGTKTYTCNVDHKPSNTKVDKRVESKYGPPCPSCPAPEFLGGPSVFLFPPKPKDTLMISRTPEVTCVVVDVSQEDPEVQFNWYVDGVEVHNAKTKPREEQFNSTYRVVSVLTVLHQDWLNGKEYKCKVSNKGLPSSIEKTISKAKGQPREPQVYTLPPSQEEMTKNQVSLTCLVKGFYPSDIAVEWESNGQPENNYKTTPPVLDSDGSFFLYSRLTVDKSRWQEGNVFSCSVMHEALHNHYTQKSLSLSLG
light: DIVMTQAAPSVAVTPGASVSISCRSSKSLLHSSGKTYLYWFLQRPGQSPQLLIYRLSSLASGVPDRFSGSGSGTAFTLRISRVEAEDVGVYYCMQHLEYPYTFGGGTKLEIKRTVAAPSVFIFPPSDEQLKSGTASVVCLLNNFYPREAKVQWKVDNALQSGNSQESVTEQDSKDSTYSLSSTLTLSKADYEKHKVYACEVTHQGLSSPVTKSFNRGEC
notes: Humanized 16D7 on an IgG4 backbone / kappa; also called Version 4
For the molecule B5, the binding result in assay [1] was “no binding”. In assay [2], binding was put at a Kd of 1.21 pM.

B6: 16D7-HC3-LC4 (antibody, V domains shown)
VH: QVQLQESGPGLVAPSESLSITCTVSGFSLIDYGVNWIRQPPGKGLEWLGVIWGDGTTYYNPSLKSRLSISKDNSKSQVFLKMNSLTAADTAMYYCARIVYWGQGTLVTVSS
VL: DIVMTQSALSVAVTPGESVSISCRSSKSLLHSSGKTYLYWFLQRPGQSPQLLIYRMSNLASGVPDRFSGSGSGTAFTLKISRVEAEDVGVYYCMQHLEYPYTFGGGTKLEIKR
notes: Resurfaced 16D7; VL fused to IGKC, VH fused to IGHG4 lacking the C-terminal Lys; also called Version5
With B6, binding in assay [2] was put at a Kd of 4.92 pM.

B7: 16D7-HC1-LC6 (antibody, V domains shown)
VH: QVQLKESGPGLVAPSESLSITCTVSGFSLIDYGVNWIRQPPGKGLEWLGVIWGDGTTYYNPSLKSRLSISKDNSKSQVFLKVTSLTTDDTAMYYCARIVYWGQGTLVTVSA
VL: DIVMTQSALSVAVTPGESVSISCRSSKSLLHSSGKTYLYWFLQRPGQSPQLLIYRLSSLASGVPDRFSGSGSGTAFTLKISRVEAEDVGVYYCMQHLEYPYTFGGGTKLEIKR
notes: Leader (residues 1-19) left out by comparison with the printed variable domains
On to B7, for which binding in assay [2] was put at a Kd of 91.7 pM.

B8: 16D7-HC2-LC1 (antibody, V domains shown)
VH: EVQLKESGPGLVAPGGSLSITCTVSGFSLIDYGVNWIRQPPGKGLEWLGVIWGDGTTYYNAPLKGRLSISKDNSKSQVFLQMNSLKTDDTAMYYCARIVYWGQGTLVTVSS
VL: DIVMTQAAPSVAVTPGASVSISCRSSKSLLHSSGKTYLYWFLQRPGQSPQLLIYRMSNLASGVPDRFSGSGSGTAFTLRISRVEAEDVGVYYCMQHLEYPYTFGGGTKLEIKR
notes: Humanized 16D7 on an IgG4 backbone / kappa; also called Version 2
B8: the binding result in assay [1] is recorded as “no binding”. The molecule also showed a Kd in assay [2] of 2.4 pM.

B9: 16D7-HC3-LC5 (antibody, V domains shown)
VH: QVQLQESGPGLVAPSESLSITCTVSGFSLIDYGVNWIRQPPGKGLEWLGVIWGDGTTYYNPSLKSRLSISKDNSKSQVFLKMNSLTAADTAMYYCARIVYWGQGTLVTVSS
VL: DIVMTQSALSVAVTPGESVSISCRSSKSLLHSSGKTYLYWFLQRPGQSPQLLIYRLSNLASGVPDRFSGSGSGTAFTLKISRVEAEDVGVYYCMQHLEYPYTFGGGTKLEIKR
notes: Resurfaced 16D7; VL fused to IGKC, VH fused to IGHG4 lacking the C-terminal Lys; also called Version6
Regarding B9, the Kd in assay [2] was determined as 184 pM.

B10: mouse/human IgG4 chimeric 16D7 (antibody, V domains shown)
VH: QVQLKESGPGLVAPSQSLSITCTVSGFSLIDYGVNWIRQPPGKGLEWLGVIWGDGTTYYNSALKSRLSIRKDNSQSQVFLKMNSLQTDDTAMYYCARIVYWGQGTLVTVSA
VL: DIVMTQAAPSVAVTPRESVSISCRSSKSLLHSSGKTYLYWFLQRPGQSPQLLIYRMSNLASGVPDRFSGSGSGTAFTLRISRVEAEDVGVYYCMQHLEYPYTFGGGTKLEIKR
notes: 16D7 VH and VL on human IgG4 (IGHG4 lacking the C-terminal Lys) and kappa (IGKC); also called the hIgG4 chimera
In assay [2], B10 registered a Kd of 1.41 pM.
